According to article PMC8407328:

Columns and labels:
[1] = target: T1, His-RcrR (Streptococcus mutans UA159) (UniProt Q8DUK6); assay: EMSA
T1 sequence: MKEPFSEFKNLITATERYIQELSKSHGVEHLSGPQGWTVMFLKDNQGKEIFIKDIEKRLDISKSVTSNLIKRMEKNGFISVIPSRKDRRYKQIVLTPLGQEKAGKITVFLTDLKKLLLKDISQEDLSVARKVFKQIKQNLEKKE

[2] = target: T1, His-RcrR (Streptococcus mutans UA159); assay: DNase I footprinting

## AAAAACTCCTTTAAATTTCGTTAAGGATAATTTTGAGCAGTAAAAAAGCTCCTAATATAAAAATAGGAGCTGCCAAATAATAGGCTGGTTTTTTTTATAGATGGCTTCTCCCAAACATCCTTATGTAATTCTTCAATATGGTAACATGAAAATAGGGAAAAAGCAAATTTGTTCAATAAAGCCA (double strand) [P1 (rcrR promoter fragment 1)]
[1]
  binding: no binding

## AGCGGTTTGAGCACTTTCACTACAGCGAAAAAGCAATCGTTTAAAGTGACTTTATCACCATCAAGCTATAAAAAATTAAATTAGTTCTCATAGAAACTTTTTTCTTGACAATAGTTTAAGGAATCATTATAATAGTTTTCATGAGAACTATTATAATATTCTCATAAAAAGTGAGGTGTTTTT (double strand) [P3 (rcrR promoter fragment 3)]
[1]
  binding: binds

## AGCGGTTTGAGCACTTTCACTACAGCGAAAAAGCAATCGTTTAAAGTGACTTTATCACCATCAAGCTATAAAAAATTAAATTAGTTCTCATAGAAACTTTTTTCTTGACAATAGTTTAAGGAATCATTATAATAGTTTTCATGAGAACTATTATAATATTCTCATAAAAAGTGAGGTGTTTTT (double strand) [P3 FAM-labeled]
[2]
  binding: binds

## GTCTTAGAAAGTAGTCAGAAGGATTAGACTTGTTTGGAAATGAATTATTCTTTTTATGGTTGTGGCTTTTCTTAAGTAATGAAGGCGAAAAGTGAATAGTCCAGCGGACTATTTTAGAAATTCAAGGGAGTTCCATTCTTTTTGGCGCCCCTAGGTCTTACCAACACCTCATGATAGAACTATA (double strand) [P2 (rcrR promoter fragment 2)]
[1]
  binding: no binding

## TAAATTTTTCCTAGGTTAACCTAGTCCTCCTTTAATATGATAACAGTACGTTTACTTTTTCATTGTAAACGATTACAAATTTGTTGGCAAGTTGTCCATAGGAAAAAAGCGCAATTTTTGTTAAAATAAAGTCAGTTGTATGCATTTTTTTAGACAAATTAGATTGAATTGCTTA (double strand) [PSMU_2038 (trehalose PTS promoter)]
[1]
  binding: binds
